Consider one molecule from article PMC8140593, “Chemical synthesis of peptidoglycan mimetic–disaccharide-tetrapeptide conjugate and its hydrolysis by bacteriophage T5, RB43 and RB49 L-alanyl-D-glutamate peptidases” (PeerJ, 2021).

A short description of the data set: Solubility in water. Type of data set: physicochemical.

Structures are written as SMILES.

Regarding `CC(=O)N[C@H]1[C@H](O[C@H]2[C@H](O[C@H](C)C(=O)N[C@@H](C)C(=O)N[C@H](CCC(=O)N[C@@H](C)C(=O)N[C@H](C)C(=O)O)C(=O)O)[C@@H](NC(C)=O)C(O)O[C@@H]2CO)O[C@H](CO)[C@@H](O)[C@@H]1O` (stereo partly drawn) [GMTP, N-acetylglucosaminyl-β(1-4)-N-acetylmuramoyl-l-alanyl-γ-d-glutamyl-l-alanyl-d-alanine], the solubility in water entry is listed as “water soluble”.
